We go through 21 molecules from US20030068675, “Position dependent recognition of GNN nucleotide triplets by zinc fingers” (published 2003).

In general, Kd refers to the free concentration of one partner at which half of the binding sites on the other are occupied at equilibrium, for simple one-to-one binding. Read a low Kd as a tighter complex.

Common to all, as to assay: EMSA
What all share (details): tags: MBP fusion
(In general: A gel shift assay detects complexes by their altered migration in electrophoresis.)

One series concerns the target T1, ZFP SBS#581 (synthetic).
T1 chain: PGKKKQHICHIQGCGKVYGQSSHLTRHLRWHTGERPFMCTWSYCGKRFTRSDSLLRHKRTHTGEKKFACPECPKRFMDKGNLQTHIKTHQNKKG
Put shortly:
(§1)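 Purified ZFP was titrated against labeled double-stranded target (1 nM or lower, at least 10-fold below expected Kd) carrying the natural binding site with flanks. Binding buffer was 10 mM Tris pH 7.5, 100 mM KCl, 1 mM MgCl2, 0.1 mM ZnCl2, 5 mM DTT, 10% glycerol, 0.02% BSA, with equilibration for at least 45 min. Bound and free target were separated on a 10% polyacrylamide gel.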

The target in another series is ZFP SBS#515 (synthetic). Put shortly: as §1
Another series has as its target T2, ZFP SBS#570 (synthetic).
T2 chain: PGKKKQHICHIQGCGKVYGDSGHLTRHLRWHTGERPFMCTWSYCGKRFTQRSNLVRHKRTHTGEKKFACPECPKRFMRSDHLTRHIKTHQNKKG
Put shortly:
as §1

The target in a further series is ZFP SBS#518 (synthetic, UniProt P08047). In short, it runs like this:
as §1

Another series addresses ZFP SBS#522 (synthetic, UniProt P08047). In short, it runs like this: as §1
Another series has as its target T3, ZFP SBS#574 (synthetic).
T3 chain: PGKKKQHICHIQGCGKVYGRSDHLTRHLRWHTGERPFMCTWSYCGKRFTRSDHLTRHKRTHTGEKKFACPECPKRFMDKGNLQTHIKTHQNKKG
Put shortly:
as §1

A further series concerns the target ZFP SBS#520 (synthetic). Put shortly: as §1
A further series addresses T4, ZFP SBS#540 (synthetic).
T4 chain: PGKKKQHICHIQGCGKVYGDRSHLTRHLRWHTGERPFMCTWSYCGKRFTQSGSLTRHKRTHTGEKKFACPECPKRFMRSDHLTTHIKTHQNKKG
Put shortly:
as §1

The target of the next series is T5, ZFP SBS#531 (synthetic, UniProt P08047).
T5 chain: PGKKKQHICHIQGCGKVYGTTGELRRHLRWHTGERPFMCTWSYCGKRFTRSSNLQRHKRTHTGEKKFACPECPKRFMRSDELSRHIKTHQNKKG
In short, it runs like this:
as §1

For a further series, the target named is ZFP SBS#532 (synthetic, UniProt P08047). In short, it runs like this: as §1
For a further series, the target named is ZFP SBS#534 (synthetic). Put shortly:
as §1

A further series has as its target ZFP SBS#533 (synthetic). Put shortly:
as §1

Another series addresses ZFP SBS#513 (synthetic). In short, it runs like this:
as §1

The target of another series is ZFP SBS#512 (synthetic). Put shortly:
as §1

The next series has as its target ZFP SBS#538 (synthetic). Put shortly: as §1
In a further series the target is T6, ZFP SBS#575 (synthetic).
T6 chain: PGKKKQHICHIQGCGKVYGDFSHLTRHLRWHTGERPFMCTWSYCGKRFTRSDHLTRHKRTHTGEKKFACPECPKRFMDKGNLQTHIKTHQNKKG
Put shortly:
as §1

The target of the next series is ZFP SBS#519 (synthetic, UniProt P08047). In short, it runs like this:
as §1

The next series addresses ZFP SBS#516 (synthetic, UniProt P08047). Put shortly: as §1
A further series deals with ZFP SBS#576 (synthetic). In short, it runs like this: as §1
The next series has as its target T7, ZFP SBS#514 (synthetic).
T7 chain: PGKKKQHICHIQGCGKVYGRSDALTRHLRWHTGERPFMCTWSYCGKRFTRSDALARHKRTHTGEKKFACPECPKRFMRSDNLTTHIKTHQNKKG
Put shortly: as §1

The target of another series is T8, ZFP SBS#579 (synthetic).
T8 chain: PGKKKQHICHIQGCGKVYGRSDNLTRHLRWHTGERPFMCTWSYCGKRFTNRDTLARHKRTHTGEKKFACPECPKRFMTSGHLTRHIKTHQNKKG
In short, it runs like this: as §1

The target in another series is ZFP SBS#577 (synthetic, UniProt P08047). In short, it runs like this: as §1
A further series deals with ZFP SBS#517 (synthetic, UniProt P08047). Put shortly: as §1
A further series addresses ZFP SBS#583 (synthetic). In short, it runs like this:
as §1

A further series concerns the target ZFP SBS#587 (synthetic). In short, it runs like this:
as §1

Chain of ZFP SBS#533 (synthetic) (chain, as listed by the source): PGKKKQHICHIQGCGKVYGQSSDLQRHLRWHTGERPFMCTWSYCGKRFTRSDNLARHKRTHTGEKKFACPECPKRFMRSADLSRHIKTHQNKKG
Chain of ZFP SBS#512 (synthetic) (chain, as listed by the source): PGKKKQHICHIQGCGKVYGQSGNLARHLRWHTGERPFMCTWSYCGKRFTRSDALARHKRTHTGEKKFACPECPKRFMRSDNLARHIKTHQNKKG
Chain of ZFP SBS#518 (P08047 other isoform, or with tags, fused parts or gaps): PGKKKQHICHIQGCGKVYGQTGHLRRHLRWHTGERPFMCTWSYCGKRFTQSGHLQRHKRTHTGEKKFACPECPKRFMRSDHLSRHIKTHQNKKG
Chain of ZFP SBS#532 (P08047 other isoform, or with tags, fused parts or gaps): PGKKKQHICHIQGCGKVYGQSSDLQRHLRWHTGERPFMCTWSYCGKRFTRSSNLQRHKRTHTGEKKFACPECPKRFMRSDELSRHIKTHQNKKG
Chain of ZFP SBS#576 (synthetic) (chain, as listed by the source): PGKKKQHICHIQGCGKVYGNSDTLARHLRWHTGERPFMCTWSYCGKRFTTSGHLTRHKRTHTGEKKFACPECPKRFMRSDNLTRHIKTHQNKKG
Chain of ZFP SBS#513 (synthetic) (chain, as listed by the source): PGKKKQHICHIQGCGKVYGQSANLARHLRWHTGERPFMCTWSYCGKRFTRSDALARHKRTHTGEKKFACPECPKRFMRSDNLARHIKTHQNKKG
Chain of ZFP SBS#587 (synthetic) (chain, as listed by the source): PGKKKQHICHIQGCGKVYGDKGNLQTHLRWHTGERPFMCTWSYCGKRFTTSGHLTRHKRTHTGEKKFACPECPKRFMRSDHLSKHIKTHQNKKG
Chain of ZFP SBS#583 (synthetic) (chain, as listed by the source): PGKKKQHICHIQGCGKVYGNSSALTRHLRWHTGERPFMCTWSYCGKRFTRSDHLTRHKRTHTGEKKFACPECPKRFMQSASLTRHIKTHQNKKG
Chain of ZFP SBS#517 (P08047 other isoform, or with tags, fused parts or gaps): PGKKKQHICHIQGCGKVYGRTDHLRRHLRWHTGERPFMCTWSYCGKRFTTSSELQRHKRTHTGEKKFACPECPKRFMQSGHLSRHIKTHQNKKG
Chain of ZFP SBS#519 (P08047 other isoform, or with tags, fused parts or gaps): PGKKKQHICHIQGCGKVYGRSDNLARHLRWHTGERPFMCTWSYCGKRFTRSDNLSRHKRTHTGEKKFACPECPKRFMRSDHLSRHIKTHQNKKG

B1: TACGTGGGTT (dsDNA)
DNA 1: TACGTGGGTT
DNA 2: AACCCACGTA
Take B1: the dissociation constant (Kd) with ZFP SBS#581 is 0.382 µM.

B2: TGGGAGGAGT (dsDNA)
DNA 1: TGGGAGGAGT
DNA 2: ACTCCTCCCA
The molecule B2 came in with a Kd in the series with ZFP SBS#515 of 0.0005 µM.

B3: GGGGAAGGCT (dsDNA)
DNA 1: GGGGAAGGCT
DNA 2: AGCCTTCCCC
B3 displayed a Kd with ZFP SBS#570 of 0.02 µM.

B4: GGGGGAGGAG (dsDNA)
DNA 1: GGGGGAGGAG
DNA 2: CTCCTCCCCC
In the series with ZFP SBS#518, B4 had a Kd of 0.03 µM.

B5: GATGAGGCA (dsDNA)
DNA 1: GATGAGGCA
DNA 2: TGCCTCATC
With B5, the Kd in the series with ZFP SBS#522 is 0.2 µM.

B6: TACGTGGGGT (dsDNA)
DNA 1: TACGTGGGGT
DNA 2: ACCCCACGTA
B6 came in with a Kd in the series with ZFP SBS#574 of 0.025 µM.

B7: GGAGGAGAT (dsDNA)
DNA 1: GGAGGAGAT
DNA 2: ATCTCCTCC
In the series with ZFP SBS#520, B7 gave a Kd of 0.3 µM.

B8: TGGGCAGGCC (dsDNA)
DNA 1: TGGGCAGGCC
DNA 2: GGCCTGCCCA
Turning to B8, the Kd with ZFP SBS#540 came out at 0.055 µM.

B9: GCGGAGGCTT (dsDNA)
DNA 1: GCGGAGGCTT
DNA 2: AAGCCTCCGC
For B9, the Kd in the series with ZFP SBS#531 stood at 0.16 µM; in the series with ZFP SBS#532, 0.1 µM; with ZFP SBS#534 it was 0.01 µM; with ZFP SBS#533, 0.007 µM.

B10: GAGGTGGAAG (dsDNA)
DNA 1: GAGGTGGAAG
DNA 2: CTTCCACCTC
Take B10: the Kd in the series with ZFP SBS#513 was determined as 0.0015 µM; with ZFP SBS#512, 0.01 µM.

B11: GCAGAGGCTT (dsDNA)
DNA 1: GCAGAGGCTT
DNA 2: AAGCCTCTGC
As to B11, the dissociation constant (Kd) in the series with ZFP SBS#538 is 0.07 µM.

B12: TACGTGGGCT (dsDNA)
DNA 1: TACGTGGGCT
DNA 2: AGCCCACGTA
Regarding B12, in the series with ZFP SBS#575, the Kd worked out at 0.472 µM.

B13: GGGGAGGAGA (dsDNA)
DNA 1: GGGGAGGAGA
DNA 2: TCTCCTCCCC
For the molecule B13, in the series with ZFP SBS#519, binding was put at a Kd of 0.0003 µM.

B14: GGAGGAGCT (dsDNA)
DNA 1: GGAGGAGCT
DNA 2: AGCTCCTCC
As to B14, the affinity with ZFP SBS#516, expressed as Kd, was 0.7 µM.

B15: GAGGGTGTTG (dsDNA)
DNA 1: GAGGGTGTTG
DNA 2: CAACACCCTC
Consider B15, for which the Kd with ZFP SBS#576 amounted to 0.2 µM.

B16: TAGGTGGTGG (dsDNA)
DNA 1: TAGGTGGTGG
DNA 2: CCACCACCTA
Molecule B16 gave a Kd in the series with ZFP SBS#514 of 0.01 µM.

B17: GGGGTTGAGG (dsDNA)
DNA 1: GGGGTTGAGG
DNA 2: CCTCAACCCC
B17: binding in the series with ZFP SBS#579 was characterised by a dissociation constant (Kd) of 0.2 µM.

B18: GGAGCGGGGA (dsDNA)
DNA 1: GGAGCGGGGA
DNA 2: TCCCCGCTCC
In turn, B18 showed a dissociation constant (Kd) with ZFP SBS#577 of 0.2 µM.

B19: GGAGCTGGGG (dsDNA)
DNA 1: GGAGCTGGGG
DNA 2: CCCCAGCTCC
In the series with ZFP SBS#517, B19 registered a Kd of 0.05 µM.

B20: GTAGGGGTTG (dsDNA)
DNA 1: GTAGGGGTTG
DNA 2: CAACCCCTAC
In the series with ZFP SBS#583, B20 gave an equilibrium dissociation constant (Kd) of 0.046 µM.

B21: GGGGGTTACG (dsDNA)
DNA 1: GGGGGTTACG
DNA 2: CGTAACCCCC
Consider B21, for which the Kd in the series with ZFP SBS#587 is 0.5 µM.
